Laboratory results published in patent US20090203610A1, “METHODS OF TREATING OBESITY OR DIABETES USING NT-4/5” (RINAT NEUROSCIENCE CORPORATION, priority 2004, published 2009).

Columns and labels:
[1] = tested on: db/db mice; assay: Heart and gastrocnemius muscle weight in db/db mice (Example 1); details: day 28; NT-4/5 20 mg/kg s.c., Rosiglitazone 3 mg/kg p.o.
Experimental: Test animals: 24 female 10-12 weeks old db/db mice (C57BL/Ks J Rj-db/db, Janvier, France), weighing in the target range of 40-50 g, were used in this study. These mice were housed in a temperature (19.5-24.5° C.) and relative humidity (45-65%) controlled room with a 12-hour light/dark cycle, with ad libitum access to filtered tap-water and irradiated pelleted laboratory chow (SAFE, France) throughout the study. Upon receipt at animal facilities, they were housed 4 per cage covered with filtered caps and at least a 5-day acclimation period was observed.
The mice were divided into three groups of 8 mice each (groups 1-3). Each group was treated with vehicle (PBS) subcutaneously (s.c.), 3 mg/kg Rosiglitazone orally (p.o.), or 20 mg/kg NT-4/5 subcutaneously (s.c.). From day 1 to day 5 (T1-T5) and then from day 8 to day 12 (T8-T12), the mice in groups 2 and 3 were dosed once daily for 5 consecutive days, with a volume of 10 ml/kg.
Heart weight and gastrocnemius weight were measured on day 28 for vehicle, Rosiglitazone, and NT-4/5 treated mice.

[2] = tested on: NONcNZO-10 polygenic obese and diabetic mice; assay: Body weight and food intake in NONcNZO-10 mice (Example 3); type: in vivo
Source text: Test animals: 19 male NONcNZO-10 polygenic obese and diabetic mice from Jackson Laboratory (See Leiter et al., Diabetes 53 (Suppl. 1): S4-S11, 2004) at 9 weeks of age weighing in the range of 28-35 g were used in this study.
Administration of NT-4/5: NT-4/5 was obtained from Genentech Inc.
The mice were divided into 3 groups of equivalent body weight and baseline glucose distribution (6-7 mice per group). […] Seven days before starting the treatment (day −7), blood samples were collected from the mice as described previously for the determination of baseline levels of blood glucose and triglyceride. After the treatment started, blood samples were collected weekly to determine glucose and triglyceride levels as described in previous examples. Body weight and food intake were monitored 5 days a week through out the entire study.

[3] = tested on: NONcNZO-10 polygenic obese mice; assay: Body weight in NONcNZO-10 mice (Example 4, Table 19); type: in vivo
Source text: (§1) Test animals: 40 male NONcNZO-10 polygenic obese mice obtained from Jackson Laboratory at 10 weeks of age weighing in the range of 26-32 g were used in this study.
(§2) Administration of NT-4/5: NT-4/5 was produced in E. coli as descried in U.S. Pat. No. 6,184,360. The mice were divided into 6 groups of equivalent body weight and baseline blood glucose distribution (6-7 mice per group). […] A “paired-fed” control group received daily injection of vehicle, but were only fed with the same amount of food the 3 mg/kg group consumed the previous day. On the day when the treatment started (day 1), a baseline blood samples were collected for measuring glucose and triglyceride. Triglyceride level was measured on day 10. At the end of the study (day 12), a terminal blood sample was collected to determine glucose, triglyceride, electrolytes (Na, K, Cl), testoterone, corticosterone, thyroid hormone (total T4) and thyroid stimulating hormone (TSH) levels. Electrolytes, free testosterone, T4 and TSH levels of serum samples were measured by AniLytics (Gaithesburg, M.D) according to the standard protocols employed by the vendor. Other analytes were measured as described above. Body weight, food intake were monitored 5 days per week through out the entire study. Daily water intake was measured from day 5 through day 7.

[4] = tested on: NONcNZO-10 polygenic obese mice; assay: Food intake in NONcNZO-10 mice (Example 4, Table 20); type: in vivo
Source text: as §1, §2

[5] = Serum half life after single subcutaneous dose in db/db mice (Example 7); type: in vivo; details: single subcutaneous dose of 4 mg/kg in db/db mice; estimated
Source text: In addition, pegylated NT-4/5 has extended half life in vivo.

[6] = tested on: db/db mice; assay: Daily food intake after single injection of NT-4/5 or pegylated NT-4/5 in db/db mice (Example 7, Table 22); type: in vivo; details: for Daily food intake: single s.c. injection 5 mg/kg, db/db mice, mean
Experimental: (§3) Test animals: 30 female db/db mice at 7 weeks of age weighing in the range of 27-34 g were used in this study.
(§4) Administration of NT-4/5 and pegylated NT-4/5: Wild type NT-4/5 was obtained from Genentech Inc. The mice were divided into 5 groups of equivalent body weight distribution (6 mice per group). Each group received on the first day (day 1) of the study one and the only dose of either vehicle, 5 mg/kg of NT-4/5 produced as described above, 5 mg/kg of 2PEG-NT4-G1S, or 5 mg/kg of 1PEG-NT4-G1S. 2PEG-NT4-G1S represents one PEG molecule was conjugated to each NT-4/5 monomer in a NT-4/5 dimer, and 1PEG-NT4-G1S represents one PEG molecule was conjugated to only one monomer of the NT-4/5 dimer. 2PEG-NT4-G1S and 1PEG-NT4-G1S were separated by ion exchange. Four days before starting the treatment (day −4), blood samples were collected from the mice as described previously for the determination of baseline levels of serum glucose. On day 4 after the treatment started, blood samples were collected again to determine serum glucose level. Body weight and food intake were monitored 5 days a week through out the entire study.

[7] = tested on: db/db mice; assay: Non-fasting serum glucose after single injection in db/db mice (Example 7); type: in vivo; details: after 4 days; single subcutaneous injection, 5 mg/kg
Experimental: as §3, §4

[8] = tested on: DIO mice; assay: Respiratory quotient and energy expenditure by indirect calorimetry (CCMS) in DIO mice (Example 9); type: in vivo
Source text: Test animals: Mice with diet induced obesity (DIO) were used in this study. 29 male C57BL/6J mice were weaned at 4 weeks of age. Immediately after weaning they were put on 58% high fat diet (D12331i, Research Diet) through out the study. The DIO mice at 13 weeks of age weighing in the range of 28-40 g were used in this study.
Administration of NT-4/5: NT-4/5 was obtained from Genentech Inc. or produced as described in U.S. Pat. No. 6,184,360. The mice were divided into 2 groups of equivalent body weight distribution (8 mice per group). The mice were acclimated individually in the Comprehensive Cage Monitoring System (CCMS, Columbus Instruments) for 2 days, in preparation for the indirect calorimetry, before the treatment started. Each group received 5 daily subcutaneous doses of either vehicle or 10 mg/kg of NT-4/5, respectively. Body weight and food intake were monitored 5 days per week through out the entire study. […] The body composition, i.e. percent lean body mass, fat content, and bone density was determined the day both before treatment started (day 0) and the final day of treatment (day 5) with a PIXImus Mouse Densitometer (GE Lunar Medical Systems, Madison, Wis.) using software version 1.46. […]

[9] = 2 or 10 mg/kg s.c. daily, dose dependent

Row | Molecule | Gastrocnemius weight [1] | Heart weight [1] | body weight [2, 9] | food intake [2, 9] | rebound hyperphagia or rebound body weight gain ([2]; 30 days after the treatment was terminated) | body weight loss relative to the vehicle control ([3]; 1 mg/kg) | body weight loss relative to the vehicle control ([3]; 3 mg/kg) | body weight ([3]; dose dependent manner) | food intake ([4]; 3 mg/kg) | food intake ([4]; dose dependent manner) | serum half life [5] | Daily food intake ([6]; Day 1) | Daily food intake ([6]; Day 2) | Daily food intake ([6]; Day 3) | Daily food intake ([6]; Day 4) | food intake ([6]; single subcutaneous injection, 5 mg/kg, significantly) | non-fasting serum glucose levels [7] | respiratory quotient (RQ=Vco2/Vo2) ([8]; 10 mg/kg s.c. daily, P=0.0025) | estimated cumulative energy expenditure ([8]; day 1 to day 5, 10 mg/kg, vs vehicle)
1 | CN(CCOc1ccc(CC2SC(=O)NC2=O)cc1)c1ccccn1 (stereo not shown) [Rosiglitazone, reference compound] | 0.074 g | 0.114 g |  |  |  |  |  |  |  |  |  |  |  |  |  |  |  |  | 
2 | NT-4/5: mature human neurotrophin-4/5 (SEQ ID NO:1), obtained from Genentech or produced in E. coli (protein, listed as Homo sapiens) GVSETAPASRRGELAVCDAVSGWVTDRRTAVDLRGREVEVLGEVPAAGGSPLRQYFFETRCKADNAEEGGPGAGGGGCRGVDRRHWVSECKAKQSYVRALTADAQGRVGWRWIRIDTACVCTLLSRTGRA |  |  | reduced body weight | reduced | No rebound hyperphagia or rebound body weight gain/overshoot was observed | about 5% | about 10% | reduced body weight | a significant reduction in food intake | reduced | 41 to 52 min | 6.6 g/day | 5.2 g/day | 7.3 g/day | 6.3 g/day | reduced | showed a tendency to reduce | reduced the respiratory quotient | No change
